test: yeast display, Sf9 membrane polyspecificity reagent, FACS + sequencing; frameworks hold sequencing errors
In short: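 A synthetic nanobody library was expressed on Saccharomyces cerevisiae BJ5465 by galactose induction for 36–48 hours. The library was stained for 1 hour at 4 °C with 10% biotinylated, detergent-solubilized Sf9 membrane reagent and enriched with streptavidin microbeads before FACS. Low and high (top ~1%) gates were set on anti-HA fluorescence for expression and streptavidin fluorescence for reagent binding, and each polyreactivity label reflects the gate of origin.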

Sequence	polyreactivity (PSR sort gate)
QVQLVESGGGLVQAGGSLSLSFAASGRTFGYYDMGRYRQAPGKEREFVAAITWSGGNTYADSVKGRFTISRDNAKNTVYLQMNSLKPEDTAVYYCNAVVRAYYTSIWVPRYDYWGQATQVTVSS	high polyreactivity
QVQLVESGGGLVQAGGSLRLSCAASGGIFRQYAMGWYRQAPGKERELVAAISYNTGSTYYADSVKWRFTISRDNAKNTVYLQMNSLKPEDTAVYYCAKDIVIPATYVEYDYWGKGTQVTVSS	low polyreactivity
QVQLVESGGGLVQAGGSLRLSCAASGITFYYYAMGWYRQAPGKERELVAAISDNGSRTYYADSVKGRFTISRDNAKNTVYFQMNSLKPEDTAVYYCAADWFYTNVRYRYAYGGYYWGQGTQVTVSS	high polyreactivity
QVQLVESGGGLDQAGGSLRLSCAASGRIFFGNVMGWYRQATGKDSELVAAITKRVGRTYYADSVKGRFTISRDNAKNTVYLQMNSLKPEDTAVYYCNAVTPLSYCRAAPLEMDYWGQGTQVTVSS	high polyreactivity
QVQLVESGGGLVQAGGSLRLSCDASGITFGYYAMGWYRQAPGKERELVAAISNSGRTYYADSVKGRFTISRDNAKNSVYLQMNSLKPEDTAVYYCAADDAYYDFYFWGQGTQVTVSS	low polyreactivity
QVQLVDSGGGLVQAGGSLRLSCAASGRILYANAMGWYRQAPGKERELVAAIRYSDDSTYYADSVKGRFTISRDNAKNTVYLHMNSLKPEDTAVYYCNADYLRWDIWYWHGYDYWGQGTQVTVSS	high polyreactivity
QVQLVESGGGLDQAGGSLRLSCAASGLTFRPYAMGGYRQAPWKERELDAGISGGGGRTYYADSVKGRFTISRDNAKNTVYFQMNSLKPEDTAVYYCATPSAYRYPYYYDYEYWGQGTQVTVSS	low polyreactivity
QVQLVESGGGLVQAGGSLRISCAASGFIFTSKAMGWHRQAPGKERELVAAITKSGGSTYYADSVKGRFTISRDNAKNTVYLQMNSLKPEDTAVYYCAAYPTSRYKYEYWGQGTQVTVSS	high polyreactivity
QVQLVESGGGLVQAGGSLRLSCAASGSTLVYNGMVWYRQAPGKEREFVAAIRSNDGSTYYADSVKGRFTISRDNAKNTVYLQMNSLKPEDTAVYYCNNDVWDGYDWPEFDYWGQGTQVTVSS	low polyreactivity
QVQLVDSGGGLVQAGGSLSLSCADSGFIFRAYEMGSYRQAPGNERALVAAISGSGGRTYYSDSVNGRFTISRDNAKNTVYLQKNSLKPEDTAVYYGKADFHYSIPGHAFATVYYWGQGTQVTVSS	low polyreactivity
QFQLVESGGGLVQAGGSLRLSCAASGRTFYYYVMGWYRQAPGKERELVAAITIRGGSTYYADSVKGRFTISRDNAKNTVYLQMNSLKPEDTAVYYCNARGGSSTYGNYYWGQGTQVTVSS	low polyreactivity
QVQHVESVGGLVQAGGSLRLSCAASVSTFYFYAMGWYRQAPGKERELVAVISSGGRTYYADSVKGRFTISRDKAKNTVYLQMNSLKPEDTAVYYCAASWPSSLTYYYWGQGTQVTVSS	low polyreactivity
QVQLVESGGGLLQAGGSLRLSCAASGGIIYYNAMGWSRQAPGKERELVAAIRYRGGSTYYADSVKGRFTISRDNEKNTVYLQMNSLKPEYTAVYYCAVDNLRRGLSLYDTLDYWGQGTQVTVSS	low polyreactivity
QVQLVESGGGIVQAGGSLRLRCAASGSIFRFNAMGWYRQAPGKERDLVAAISSSGSSTYYADSVKGRFTISRDNSKNTVYLQMNSLKPEDTAVYYSAARNSYGNWRYYYWGQGTQVTVSS	high polyreactivity
QVQLVESGGGLVQAGGSLRLSCAASGFTFGWYAMGWYRQAPGKEREFVAAISRSGGSTYYADSVKGRFTISRDNAKNTVYLQMNSLKPEDTAVYYCAAYIIGDTHAEYDYWGQGTQVTVSS	high polyreactivity
QVQLVESGGGLVQAGGSLRLSCAASGRTFAWYTMGWYRKAPGKERELVAAISGSGGSTYYADSVKGRFTISRDNAKNTVYLQMNSLKPEDSAVYYCARRVDSYYGHTRYYYWGQGTQITVSS	high polyreactivity
QVQLVESGGGLVQAGGSLRLSCAASGSTFRYNAMGWYRQAPGKARELVAAITSGGGTNYADSVKGRFTISRDNAKNTVYLQMNSLNPEDTAVYYCAAPWGLGSELLKRDYWGQGTQVTVSS	low polyreactivity
QVQLVESGGGLVQAGGSLRLSCAASGSIFFSNVMGWYRQAPGKERELVAAITGRTGSTYYADSVKGRFTISRDNAKNTVYLQMNSLKPEDTAVYYCFSYWPRYWQSGNDYWGQGTQVTVSS	high polyreactivity
QVQLVESGGGLVQAGGSLRLSCAASGSIFLVNAMGWYRQAPGKERELVAAINSGGSTYYADSVKGRFTISRDNAKNTVYLQMNSLKPEDTAVYYCAADFWLKVWQDTDYDYDYWGQGTQVTVSS	low polyreactivity
QVQLVESGGGLVQAGGSLRLSCAASGIIFIYYTMGWYRQAPGTDRELVAVITTSGDGTYYADSVKGRFTISRDNAKNTGYLQMNSLKPEDTSVYYCAASYSTWVSTRNDYWGQGTQVTVSS	low polyreactivity
QVQLVESGGGLVQAGVRLRLSCAASGIIFRTYAMGWYRRAPGKERELVADITWSDGSTYYADSVKGRFTISRDNAKNTVYLQMNSLKPEDTAVYYCNADVLSDDSWWSYDYWGQGTQVTVSS	high polyreactivity
QVQLVESGGGLVQAGGSLRLSCAASGRIFQYYAMGWYRQAPGKERELVASISGRGGRTYYADSVKGRLTISRDNAKNTVYLQMNSLKPEDTAVYYCNAVFSTIRYIRSYNYWGQGTQVTVSS	high polyreactivity

Sequence	polyreactivity (PSR sort gate)
QVQLVESGGGLVQAGGSLRLSCAASGGIISINAMGWYRQAPGKERELVAAISWGDGITYYADSVKGRFTTSRDNAKNTVYLLMTSLKPEDTAVYYCAKDIGTRLGPAGYDYWGQGTQVTVSS	low polyreactivity
QVQLVESGAGLFQAGGSLRISCAASGLIFDGYAMGWYRQATGKERELVAAITRSGGSTSYADSVKARFTISRDNAKNTVYLHMNSLKPEDTAVYYCAAKVHTFYYHYYSWGQGTQVTVSS	high polyreactivity
QLQLVESGGGLVQAGGSLRLSCAASGFIFYLYAMGWYRQAPGKDRELVAAISWSGGITYYADSVKGRFTISRDNAKNTVYLQMNSLKPEDTAVNYCNAVGASASDGDSWGQGTQVTVSS	high polyreactivity
QVQLVESGGGLVQAGGSLRLSCAASGNILRSYAMGWYRQAPGKERELVAAISADGSGTYYADSVKGRFTISRDNAKNTVYLQMNSLKPEDTAVYYCAAERYFWWYYDPENYWGQGTQVTVSS	high polyreactivity
QVQLVESGGGLVQAGGSLRLSCAASGIIFQKYAMGWYRQEPGKERELVDAITRRGGSTYYADSVKGRFTISRDNAKNTVYLQMNSLKPEDTAVYYCAVQLRRHVDMDYWGQGTQVTVSS	high polyreactivity
QVQLVESGGGLVQAGGSLRLSCAASGRTSGGYAMGWYRQAPGKERELVATITQSGGRTYYADSVKGRFTISRDNAKNTVYLQMNSLKPEDTAVYYCAAQYGRTYYSRREYWGQGTQVTVSS	high polyreactivity
QVQLVQAGGGLVQAGGILRLSCAASGFTFQEYAMGWYRQAPGKAREFVAAITYSGGSTYADSVKGRFTISRDNAKNTVYLQMNSLKPEDTAVYYCNAQVYYSVRGYPYGYYRNDYWGQGTQVTVSS	low polyreactivity
QVQLVESGGGLVQAGGSLRLSCAASGSTFSTNAMGWYRQAPGKERELVARISAGRTNYADSVKGRFTISRDNAKNTVYLQMNSLKPEDTAVYYCNADYQYNRYSRVVGGHYYWGQGTQVTVSS	low polyreactivity
QVQLVESGGGLVQAGGSLRLSCAASGSTFNYYAMGWNRQAPVKERELVATISWSGDSTYADSVKGRFTISRDNAKNTVYLQMHSLKPEDTAVYYCATSGDWWCFRYDYWGQGTQVTVSS	low polyreactivity
QVQLVESGGGLVQAGGSLRLSCAASGSIFRKYVMGWYRQAPGKERELVAAISGSGGRTYYADSVKGRFTISRDNAKNTVYLQMNSLKPEDTAVSYSNAYPHAYTGSTREGDYWGQGTQVTVSS	high polyreactivity
QVQLVESGGGLVQAGGSLRLSCAASGYTFGYNAMGWYRQAPGKERELVANITWRGGSTNYADSVKGRFTISRDNAKNTVYLQMNSLKPEDTAVYYCAADRPWYYGRYYYWGQGTQVTVSS	high polyreactivity
QVQLVESGGGLVQAGGSLRLSCAASGFIFDWNTMGWYRQAPGKERELVAAITESSGSTYYADSVKGRFTISRDNAKNTVYLQMNSLKPEDTAVYDCAADFSYVYYLYDYWGQGTQVTVSS	low polyreactivity
QVQLVESGGGLVQAGGSLRLSCAASGRTFISYAMGWYRQAPGKERELVAAIDFSDGSTYYADSVKGRFTISRDNAKNTVYLQMNSLKPEDTAVYYCAADDPGLGYWSLTWYDYWGQGTQVTVSS	high polyreactivity
QVQLVESGGGLVQAGGSLRLSCAACGFIFRRYAMGWYRQAPGKERELVAAISSGGNTNYADSVKGRFTISRDNAKNTVYLQMNSLKPEDTAVYYCAVLGWYYYKYDYWGQGTQVNVSS	high polyreactivity
QVQLVESGGGLVQSGGSLRLSCAASGFIFEAYAMGWYRQAPGKEMELVAAISSGGSTKYADSVKGRFTISRDNAKNSVYLQMNSLKPEDTAVYYCAKSSWTYGAYNYLGQGTQVTVSS	high polyreactivity
QVQLVESGGGLVQAGGSLRLSCAASGRTSVINAMGWYRQATGKERELVAAITKRGGSTYYADSVKGRFTISRDNAKNTVYLQMNSLKPEDTAVYYCAKYAISIQYDSWGQGTQVTVSS	high polyreactivity
QVRLVESGGGLVQAGGSLRLSCAASGRTLFVYDMGWYRQAPGKERELVAAISTGDDTNYADSVKGRFTISRDNAKNTVYLQMNSLKPEDTAVYYCNALYYTYPYWGYPSDYNLDYWGQGTQVTVSS	low polyreactivity
QVQLGESGGGLVQAGGSLRLSCAASGLIIFSYAMGWSRQAPGKELEMVAAISRSGGRTYFADSVKGRFTISRDNAKNTVFLQMNRLKPEDTAVYYCAADDPYTPQYPDVTYDFWGQGTQVTVSS	high polyreactivity
QVQLEDSRVGLVQAVGILRLSCASSGSTIDDNVMGWYRQAPRNERELVAAICSSGGSPYYADSVKGRFTISRDNAKNTDYLLMNSLKPEDTAVYYCNAVYFRLWGYYDRRSYNYWGQGTQVTVSS	low polyreactivity
QVQLVESGGGLVQAGGSLRLSCAASGLIFVFNTLGWYRQAPGKEMELVAVITSGGSTNYADSVKGRFTISSDNEKNTVYLQMISLKPEDTAVYYCNVDRQVITGRYIGDYWGEGTQVTVSS	low polyreactivity
QVQLVESGGGLVQAGGSLRLSCAASGYIVITYAMGRYRQAPGKERELVAAISRRGGRTYYADSVKGRFTISRDNAKNTVYLQMNSLKPEATAVYYCAADPATSVYGGLNYWGQGTQVTVSS	high polyreactivity

From the nanobody polyreactivity screen of Harvey et al. (2022)
